Assay results as given in patent publication US20100184697A1 (U S OF AMERICA AS REPRESENTED BY THE SECRETAR, published 2010).
Square brackets hold non-standard residues; d marks the D form. Ends that are not written are not given here. rhodamine = not defined here; Nle = CCCC[C@H](N)C(=O)O

Legend:
[1] = biological target: T1, STAT3 tagged with eGFP on its N-terminus (UniProt P40763 1-770); test: FRET efficiency (1-D0/D1) by rhodamine photobleaching in living cells
T1 construct: Stably expressed inside living HEK293 cells; also called eGFP-STAT3; not shown: eGFP (enhanced green fluorescent protein) tag
Text: (§1) An additional cysteine residue was positioned at the C-terminus of penetratin to facilitate labeling. Excitation of eGFP (donor) was facilitated using a 488-nm light source, and the emission spectrum was detected. In the absence of energy transfer between eGFP and rhodamine, excitation of eGFP would lead to an emission peak at 520-540 nm, whereas energy transfer from eGFP to an adjacent rhodamine fluorochrome acceptor would cause an emission in the 560-600 nm range. […] To confirm that FRET was occurring, acceptor photobleaching was performed with a 561 nm laser using an LSM 510 confocal microscope (Zeiss).
(§2) Excitation of eGFP was facilitated, and the emission spectrum detected, in accordance with the methods described in Example 6. FRET efficiency was calculated using equation 1-D0/D1, where D0 is fluorescence intensity of eGFP before rhodamine photobleaching and D1 is the intensity after rhodamine photobleaching.

[2] = biological target: T2, eGFP-STAT1 (UniProt P42224 1-750); test: as above
T2 construct: Expressed inside living cells; not shown: eGFP (enhanced green fluorescent protein) tag
T2 sequence (looked up): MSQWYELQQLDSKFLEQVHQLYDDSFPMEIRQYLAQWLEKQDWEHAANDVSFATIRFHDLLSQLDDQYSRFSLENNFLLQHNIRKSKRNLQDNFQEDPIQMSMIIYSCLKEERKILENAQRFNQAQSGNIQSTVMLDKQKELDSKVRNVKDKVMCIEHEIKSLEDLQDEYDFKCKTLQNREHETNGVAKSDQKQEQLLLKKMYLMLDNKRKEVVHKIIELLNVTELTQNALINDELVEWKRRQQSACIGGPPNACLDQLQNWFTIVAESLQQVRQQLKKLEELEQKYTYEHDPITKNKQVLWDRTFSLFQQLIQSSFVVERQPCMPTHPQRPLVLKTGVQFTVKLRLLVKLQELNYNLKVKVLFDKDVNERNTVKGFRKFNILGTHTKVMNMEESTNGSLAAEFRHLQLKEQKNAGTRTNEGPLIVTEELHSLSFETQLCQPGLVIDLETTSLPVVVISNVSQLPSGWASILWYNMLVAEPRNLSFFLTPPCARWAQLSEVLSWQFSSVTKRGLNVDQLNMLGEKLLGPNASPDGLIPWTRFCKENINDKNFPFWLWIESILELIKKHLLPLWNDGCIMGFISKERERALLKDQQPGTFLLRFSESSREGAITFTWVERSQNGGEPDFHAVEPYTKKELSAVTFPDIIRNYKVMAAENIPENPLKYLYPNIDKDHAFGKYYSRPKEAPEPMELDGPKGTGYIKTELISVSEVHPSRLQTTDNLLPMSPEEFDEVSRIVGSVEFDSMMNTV
Text: as §1, §2

[3] = biological target: T3, eGFP; test: as above
T3 construct: Control, expressed inside living cells
Text: as §1, §2

[4] = biological target: T2, eGFP-STAT1; test: FRET (eGFP donor, rhodamine acceptor, acceptor photobleaching) in living cells

T1 sequence (P40763 whole entry): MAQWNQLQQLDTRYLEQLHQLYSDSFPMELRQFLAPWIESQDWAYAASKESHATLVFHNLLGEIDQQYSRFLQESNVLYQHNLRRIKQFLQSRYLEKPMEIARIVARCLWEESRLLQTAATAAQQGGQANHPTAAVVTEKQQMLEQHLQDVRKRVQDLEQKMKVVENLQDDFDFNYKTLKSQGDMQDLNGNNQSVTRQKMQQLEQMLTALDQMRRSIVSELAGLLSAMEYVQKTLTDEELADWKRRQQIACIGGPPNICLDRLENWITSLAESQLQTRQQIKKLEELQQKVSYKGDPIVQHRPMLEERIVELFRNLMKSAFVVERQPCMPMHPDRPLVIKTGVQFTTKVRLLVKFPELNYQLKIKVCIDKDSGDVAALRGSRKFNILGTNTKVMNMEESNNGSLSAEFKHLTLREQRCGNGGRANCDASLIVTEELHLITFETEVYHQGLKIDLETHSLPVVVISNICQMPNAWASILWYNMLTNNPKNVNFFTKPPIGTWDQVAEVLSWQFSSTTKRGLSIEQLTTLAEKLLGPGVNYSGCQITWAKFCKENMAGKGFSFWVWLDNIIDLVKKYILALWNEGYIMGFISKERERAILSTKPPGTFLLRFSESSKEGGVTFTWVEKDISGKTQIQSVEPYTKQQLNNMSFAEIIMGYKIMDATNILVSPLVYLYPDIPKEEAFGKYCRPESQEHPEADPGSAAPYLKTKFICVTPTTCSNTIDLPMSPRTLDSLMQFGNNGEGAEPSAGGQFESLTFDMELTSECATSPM

FRET efficiency [1]: 90.8%
FRET efficiency [2]: ~12.8%
FRET efficiency [3]: ~15.2%
binding result [4]: no binding
B1: rhodamine-labeled STAT3-HEL2A-2 (peptide)
peptide: LDTRYLEQLHKLYRQIKIWFPNRR[Nle]KWKKC(rhodamine)
modifications: not fully specified; reading uncertain
notes: Synthetic peptide; also called STAT3-HEL2A-2 labeled with rhodamine
